Data as given in US20180057581A1.

What was measured:
[1] = target: native human M-CSF (in human serum or in MDA-MB-231 conditioned medium) (human), P09603; test: cell-based or functional assay
[2] = target: M-CSF endogenously expressed on MDA-MB-231 cells (human) (UniProt P09603); test: FACS, MDA-MB-231 cells endogenously expressing M-CSF (n = 2)

Chain of native human M-CSF (in human serum or in MDA-MB-231 conditioned medium) (human), P09603 (P09603 33-255): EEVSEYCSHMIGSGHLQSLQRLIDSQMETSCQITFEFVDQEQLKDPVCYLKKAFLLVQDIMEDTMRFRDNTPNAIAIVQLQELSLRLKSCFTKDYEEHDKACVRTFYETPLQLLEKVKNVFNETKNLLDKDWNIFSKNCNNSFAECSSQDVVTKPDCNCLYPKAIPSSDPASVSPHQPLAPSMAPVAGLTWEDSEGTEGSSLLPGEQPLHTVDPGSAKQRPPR

Binder | IC50, inhibition of M-NFS-60 proliferation induced by MDA-MB-231 conditioned medium [1] | IC50, inhibition of M-NFS-60 proliferation induced by human serum (50%) [1] | EC50 [2] | Cell viability assay (IC50), Human serum M-CSF [1] | Cell viability assay (IC50), MDA-MB-231 [1]
Satine, IgG1_D265A (antibody, V domains shown) VH: EVQLVESGGGLVKPGGSLRLSCAASGFTFSIYAMSWVRQAPGKGLEWVGRIKSNADGGTTEYAAPVKGRFTISRDDSKNTLYLQMNSLKTEDTAVYYCARMRYYSDLYFDPWGQGTLVTVSS VL: SYELTQPPSVSVSPGQTASITCSGDKLGQKYVSWYQQKPGQSPVLVISQDRKRPSGIPERFSGSNSGNTATLTISGTQAEDEADYYCQTWTHLQWVFGGGTKLTVLGQ | 0.0708 nM | 0.0318 nM |  |  | 
HeRX1-10G1, IgG1 (antibody, V domains shown) VH: QVQLQESGPGLVKPSQTLSLTCTVSDYSITSDYAWNWIRQFPGKGLEWMGYISYSGSTSYNPSLKSRITISRDTSKNQFSLQLNSVTAADTAVYYCASFDYAHAMDYWGQGTTVTVSS VL: DIVLTQSPAFLSVTPGEKVTFTCQASQSIGTSIHWYQQKTDQAPKLLIKYASESISGIPSRFSGSGSGTDFTLTISSVEAEDAADYYCQQINSWPTTFGGGTKLEIKRT | 0.0903 nM | 0.0154 nM |  |  | 
HeRX1-10G1, IgG1_D265A (antibody, V domains shown) VH: QVQLQESGPGLVKPSQTLSLTCTVSDYSITSDYAWNWIRQFPGKGLEWMGYISYSGSTSYNPSLKSRITISRDTSKNQFSLQLNSVTAADTAVYYCASFDYAHAMDYWGQGTTVTVSS VL: DIVLTQSPAFLSVTPGEKVTFTCQASQSIGTSIHWYQQKTDQAPKLLIKYASESISGIPSRFSGSGSGTDFTLTISSVEAEDAADYYCQQINSWPTTFGGGTKLEIKRT | 0.0591 nM | 0.0124 nM |  |  | 
HeRX1-10G1 (format not stated) (antibody, V domains shown) VH: QVQLQESGPGLVKPSQTLSLTCTVSDYSITSDYAWNWIRQFPGKGLEWMGYISYSGSTSYNPSLKSRITISRDTSKNQFSLQLNSVTAADTAVYYCASFDYAHAMDYWGQGTTVTVSS VL: DIVLTQSPAFLSVTPGEKVTFTCQASQSIGTSIHWYQQKTDQAPKLLIKYASESISGIPSRFSGSGSGTDFTLTISSVEAEDAADYYCQQINSWPTTFGGGTKLEIKRT |  |  |  | 0.015 nM | 0.09 nM
Camille, IgG1_D265A (antibody, V domains shown) VH: QVQLQQSGPGLVKPSQTLSLTCAISGESVSTSSAAWNWIRQSPSRGLEWLGRTYYRSKWKHEYAVSVKSRITINPDTSKNQFSLQLNSVTPEDTAVYYCARDRYYYSAFDYWGQGTLVTVSS VL: QSALTQPASVSGSPGQSITISCTGTSSDVGGYNSVSWYQQHPGKAPKLLIYAVSNRPSGVSNRFSGSKSGNTASLTISGLQAEDEADYYCASYDERFTRVFGGGTKLTVLGQ | 0.0985 nM | 0.0177 nM |  |  | 
Madeleine, IgG1_D265A (antibody, V domains shown) VH: QVQLQQSGPGLVKPSQTLSLTCAISGDSVSSNSAAWNWIRQSPSRGLEWLGRTYYRSKWKKEYAQSVKSRITINPDTSKNQFSLQLNSVTPEDTAVYYCARDRYYYSAFDYWGQGTLVTVSS VL: QSALTQPASVSGSPGQSITISCTGTSSDVGGYNSVSWYQQHPGKAPKLMIYAVSNRPSGVSNRFSGSKSGNTASLTISGLQAEDEADYYCASYDERFTRVFGGGTKLTVLGQ | 0.0754 nM | 0.02 nM |  |  | 
Camille (format not stated) (antibody, V domains shown) VH: QVQLQQSGPGLVKPSQTLSLTCAISGESVSTSSAAWNWIRQSPSRGLEWLGRTYYRSKWKHEYAVSVKSRITINPDTSKNQFSLQLNSVTPEDTAVYYCARDRYYYSAFDYWGQGTLVTVSS VL: QSALTQPASVSGSPGQSITISCTGTSSDVGGYNSVSWYQQHPGKAPKLLIYAVSNRPSGVSNRFSGSKSGNTASLTISGLQAEDEADYYCASYDERFTRVFGGGTKLTVLGQ |  |  |  | 0.018 nM | 0.099 nM
Maelle, IgG1_D265A (antibody, V domains shown) VH: QVQLQQSGPGLVKPSQTLSLTCAISGESVSTSSAAWNWIRQSPSRGLEWLGRTYYRSKWKKEYAQSVKSRITINPDTSKNQFSLQLNSVTPEDTAVYYCARDRYYYSAFDYWGQGTLVTVSS VL: QSALTQPASVSGSPGQSITISCTGTSSDVGGYNSVSWYQQHPGKAPKLIIYAVSNRPSGVSNRFSGSKSGNTASLTISGLQAEDEADYYCASYDERFTRVFGGGTKLTVLGQ | 0.0989 nM | 0.016 nM |  |  | 
Caline, IgG1_D265A (antibody, V domains shown) VH: QVQLQQSGPGLVKPSQTLSLTCAISGDSVSSNSAAWNWIRQSPSRGLEWLGRTYYRSKWKHEYAMSVKSRITINPDTSKNQFSLQLNSVTPEDTAVYYCARDRYYYSAFDYWGQGTLVTVSS VL: QSALTQPASVSGSPGQSITISCTGTSSDVGGYNSVSWYQQHPGKAPKLMIYAVSNRPSGVSNRFSGSKSGNTASLTISGLQAEDEADYYCASYDERFTRVFGGGTKLTVLGQ | 0.107 nM | 0.0177 nM |  |  | 
Celine, IgG1_D265A (antibody, V domains shown) VH: QVQLQQSGPGLVKPSQTLSLTCAISGDSVSTSSAAWNWIRQSPSRGLEWLGRTYYRSKWKHEYAVSVKSRITINPDTSKNQFSLQLNSVTPEDTAVYYCARDRYYYSAFDYWGQGTLVTVSS VL: QSALTQPASVSGSPGQSITISCTGTSSDVGGYNSVSWYQQHPGKAPKLIIYAVSNRPSGVSNRFSGSKSGNTASLTISGLQAEDEADYYCASYDERFTRVFGGGTKLTVLGQ | 0.0724 nM | 0.0238 nM |  |  | 
Caline, IgG1_D265A (antibody, V domains shown) VH: QVQLQQSGPGLVKPSQTLSLTCAISGDSVSSNSAAWNWIRQSPSRGLEWLGRTYYRSKWKHEYAMSVKSRITINPDTSKNQFSLQLNSVTPEDTAVYYCARDRYYYSAFDYWGQGTLVTVSS VL: QSALTQPASVSGSPGQSITISCTGTSSDVGGYNSVSWYQQHPGKAPKLMIYAVSNRPSGVSNRFSGSKSGNTASLTISGLQAEDEADYYCASYDERFTRVFGGGTKLTVLG |  |  | 14 nM |  | 
Laurine, IgG1_D265A (antibody, V domains shown) VH: QVQLQQSGPGLVKPSQTLSLTCAISGDSVSSNSAAWNWIRQSPSRGLEWLGRTYYRSKWKKEYAQSVKSRITINPDTSKNQFSLQLNSVTPEDTAVYYCARDRYYYSAFDYWGQGTLVTVSS VL: DIALTQPASVSGSPGQSITISCTGTSSDVGGYNSVSWYQQHPGKAPKLMIYAVSNRPSGVSNRFSGSKSGNTASLTISGLQAEDEADYYCASYDERFTRVFGGGTKLTVLGQ | 0.095 nM | 0.0156 nM |  |  | 

Continued, in another order:

IC50, inhibition of M-NFS-60 proliferation induced by MDA-MB-231 conditioned medium [1] | IC50, inhibition of M-NFS-60 proliferation induced by human serum (50%) [1] | EC50 [2] | Binder | Cell viability assay (IC50), Human serum M-CSF [1] | Cell viability assay (IC50), MDA-MB-231 [1]
0.0833 nM | 0.0252 nM |  | Romaine, IgG1_D265A (antibody, V domains shown) VH: EVQLVESGGGLVKPGGSLRLSCAASGFTFSIYAMSWVRQAPGKGLEWVGRIKSNADGGTTEYAAPVKGRFTISRDDSKNTLYLQMNSLKTEDTAVYYCARMRYYSDLYFDPWGQGTLVTVSS VL: DIELTQPPSVSVSPGQTASITCSGDAIGSKYVHWYQQKPGQAPVLVISKDNKRPSGIPERFSGSNSGNTATLTISGTQAEDEADYYCQTATVSSYWWVFGGGTKLTVLGQ |  | 
0.107 nM | 0.0932 nM |  | Servane, IgG1_D265A (antibody, V domains shown) VH: EVQLVESGGGLVKPGGSLRLSCAASGFTFSTYAISWVRQAPGKGLEWVGFIKSKHNSGTTEYAAPVKGRFTISRDDSKNTLYLQMNSLKTEDTAVYYCARMRYYSDLYFDPWGQGTLVTVSS VL: SYELTQPPSVSVSPGQTASITCSGDKLGQKYVSWYQQKPGQSPVLVISQDRKRPSGIPERFSGSNSGNTATLTISGTQAEDEADYYCQTWTHLQWVFGGGTKLTVLGQ |  | 
0.12 nM | 0.0183 nM |  | Blanche, IgG1_D265A (antibody, V domains shown) VH: QVQLQQSGPGLVKPSQTLSLTCAISGDSVSSNSAAWNWIRQSPSRGLEWLGRTYYRSKWKHEYAMSVKSRITINPDTSKNQFSLQLNSVTPEDTAVYYCARDRYYYSAFDYWGQGTLVTVSS VL: DIALTQPASVSGSPGQSITISCTGTSSDVGGYNSVSWYQQHPGKAPKLMIYAVSNRPSGVSNRFSGSKSGNTASLTISGLQAEDEADYYCASYDERFTRVFGGGTKLTVLGQ |  | 
 |  | 9 nM | Laurine, IgG1_D265A (antibody, V domains shown) VH: QVQLQQSGPGLVKPSQTLSLTCAISGDSVSSNSAAWNWIRQSPSRGLEWLGRTYYRSKWKKEYAQSVKSRITINPDTSKNQFSLQLNSVTPEDTAVYYCARDRYYYSAFDYWGQGTLVTVSS VL: DIALTQPASVSGSPGQSITISCTGTSSDVGGYNSVSWYQQHPGKAPKLMIYAVSNRPSGVSNRFSGSKSGNTASLTISGLQAEDEADYYCASYDERFTRVFGGGTKLTVLG |  | 
0.0769 nM | 0.0151 nM |  | Meriem, IgG1_D265A (antibody, V domains shown) VH: QVQLQQSGPGLVKPSQTLSLTCAISGDSVSTSSAAWNWIRQSPSRGLEWLGRTYYRSKWKKEYAQSVKSRITINPDTSKNQFSLQLNSVTPEDTAVYYCARDRYYYSAFDYWGQGTLVTVSS VL: QSALTQPASVSGSPGQSITISCTGTSSDVGGYNSVSWYQQHPGKAPKLIIYAVSNRPSGVSNRFSGSKSGNTASLTISGLQAEDEADYYCASYDERFTRVFGGGTKLTVLGQ |  | 
 |  | 10 nM | Blanche, IgG1_D265A (antibody, V domains shown) VH: QVQLQQSGPGLVKPSQTLSLTCAISGDSVSSNSAAWNWIRQSPSRGLEWLGRTYYRSKWKHEYAMSVKSRITINPDTSKNQFSLQLNSVTPEDTAVYYCARDRYYYSAFDYWGQGTLVTVSS VL: DIALTQPASVSGSPGQSITISCTGTSSDVGGYNSVSWYQQHPGKAPKLMIYAVSNRPSGVSNRFSGSKSGNTASLTISGLQAEDEADYYCASYDERFTRVFGGGTKLTVLG |  | 
 |  | 13 nM | Celine, IgG1_D265A (antibody, V domains shown) VH: QVQLQQSGPGLVKPSQTLSLTCAISGDSVSTSSAAWNWIRQSPSRGLEWLGRTYYRSKWKHEYAVSVKSRITINPDTSKNQFSLQLNSVTPEDTAVYYCARDRYYYSAFDYWGQGTLVTVSS VL: QSALTQPASVSGSPGQSITISCTGTSSDVGGYNSVSWYQQHPGKAPKLIIYAVSNRPSGVSNRFSGSKSGNTASLTISGLQAEDEADYYCASYDERFTRVFGGGTKLTVLG |  | 
